Laboratory results taken from paper PMC2673055 (The Journal of biological chemistry, 2007).
Where two headings read alike, the source gives them in different places. Each block holds one molecule with its values, some of them ahead of it.

Assays:
Assay in all cases: SPR
[1] = target: recombinant matrilin-3 A-domain (human) (UniProt O15232)
[2] = target: T1, full-length type IX collagen (human, UniProt P20849 24-921; Q14055 24-689; Q14050 26-684)
[3] = target: T1, full-length type IX collagen; remark: listed apart in the source

Kd [1]: 3.25 nM
Molecule: vitreous form of human type IX collagen (from UniProt Q14055 24-689; Q14050 26-684) (complex)

Kd [2]: 1.5 nM
B1: full-length matrilin-3 (natural protein, UniProt O15232 29-486, looked up)
chain: DPVARPGFRRLETRGPGGSPGRRPSPAAPDGAPASGTSEPGRARGAGVCKSRPLDLVFIIDSSRSVRPLEFTKVKTFVSRIIDTLDIGPADTRVAVVNYASTVKIEFQLQAYTDKQSLKQAVGRITPLSTGTMSGLAIQTAMDEAFTVEAGAREPSSNIPKVAIIVTDGRPQDQVNEVAARAQASGIELYAVGVDRADMASLKMMASEPLEEHVFYVETYGVIEKLSSRFQETFCALDPCVLGTHQCQHVCISDGEGKHHCECSQGYTLNADKKTCSALDRCALNTHGCEHICVNDRSGSYHCECYEGYTLNEDRKTCSAQDKCALGTHGCQHICVNDRTGSHHCECYEGYTLNADKKTCSVRDKCALGSHGCQHICVSDGAASYHCDCYPGYTLNEDKKTCSATEEARRLVSTEDACGCEATLAFQDKVSSYLQRLNTKLDDILEKLKINEYGQIHR

Kd [3]: 1.37 nM
B2: recombinant matrilin-3 A-domain (domain or fragment, human, UniProt O15232 76-263, looked up)
chain: VCKSRPLDLVFIIDSSRSVRPLEFTKVKTFVSRIIDTLDIGPADTRVAVVNYASTVKIEFQLQAYTDKQSLKQAVGRITPLSTGTMSGLAIQTAMDEAFTVEAGAREPSSNIPKVAIIVTDGRPQDQVNEVAARAQASGIELYAVGVDRADMASLKMMASEPLEEHVFYVETYGVIEKLSSRFQETFC
